Assay results as given in US20070178095A1 (Eli Lilly, published 2007).
Positions count from the first letter of the chain named.

T1: peptide immunogen ANYCSGESEFVFLQKYPHTHLVHQA (human)
T1 construct: For immunization it was conjugated to KLH and a helper T-cell peptide; also called immunogenic peptide; immunogenic polypeptide
T1 peptide: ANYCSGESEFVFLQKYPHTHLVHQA

T2: recombinant mouse myostatin (R&D systems, Cat. #788-G8/CF, carrier-free) (mouse, UniProt O08689 268-376)
T2 construct: mature; also called GDF-8; GDF-8/myostatin
T2 sequence (looked up): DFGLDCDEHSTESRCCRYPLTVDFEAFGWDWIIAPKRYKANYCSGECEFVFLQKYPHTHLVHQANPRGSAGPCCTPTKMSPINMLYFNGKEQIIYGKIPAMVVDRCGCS

T3: BMP-7 (R&D Systems 354-BP) (UniProt P18075 293-431)
T3 sequence (looked up): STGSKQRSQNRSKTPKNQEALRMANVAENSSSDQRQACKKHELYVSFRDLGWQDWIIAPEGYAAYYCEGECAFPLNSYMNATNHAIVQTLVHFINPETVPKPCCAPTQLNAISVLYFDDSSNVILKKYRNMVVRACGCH

T4: recombinant human GDF-11 (Peprotech, Inc., Cat. # 120-11, carrier-free) (human, UniProt O95390 299-407)
T4 construct: also called BMP-11
T4 sequence (looked up): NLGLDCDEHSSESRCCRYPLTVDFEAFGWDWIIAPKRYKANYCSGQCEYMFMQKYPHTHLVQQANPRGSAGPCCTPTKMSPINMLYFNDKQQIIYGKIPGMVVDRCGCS

T5: Activin A (R&D Systems 338-AC) (UniProt P08476 311-426)
T5 sequence (looked up): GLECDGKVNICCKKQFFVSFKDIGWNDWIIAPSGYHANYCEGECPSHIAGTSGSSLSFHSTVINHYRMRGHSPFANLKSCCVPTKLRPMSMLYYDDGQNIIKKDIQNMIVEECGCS

T6: BMP-5 (R&D Systems 615-BM) (UniProt P22003 317-454, limits assumed)
T6 sequence (looked up): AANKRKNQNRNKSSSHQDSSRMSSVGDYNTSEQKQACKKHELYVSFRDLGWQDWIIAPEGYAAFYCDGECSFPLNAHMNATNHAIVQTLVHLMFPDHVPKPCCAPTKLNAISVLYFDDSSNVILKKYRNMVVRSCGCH

T7: BMP-6 (R&D Systems 507-BP) (UniProt P22004 382-513, limits assumed)
T7 sequence (looked up): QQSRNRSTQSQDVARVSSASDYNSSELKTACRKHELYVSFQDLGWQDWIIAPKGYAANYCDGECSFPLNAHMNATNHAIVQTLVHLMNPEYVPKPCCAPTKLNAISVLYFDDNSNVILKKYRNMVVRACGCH

T8: Activin B (R&D Systems 659-AB) (UniProt P09529 293-407)
T8 sequence (looked up): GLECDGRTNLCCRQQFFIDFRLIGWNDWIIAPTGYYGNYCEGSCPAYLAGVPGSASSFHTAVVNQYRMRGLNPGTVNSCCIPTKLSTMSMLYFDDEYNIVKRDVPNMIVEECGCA

T9: TGF-beta2 (Peprotech, Inc. 100-35) (UniProt P61812 303-414)
T9 construct: also called TGF-b2
T9 sequence (looked up): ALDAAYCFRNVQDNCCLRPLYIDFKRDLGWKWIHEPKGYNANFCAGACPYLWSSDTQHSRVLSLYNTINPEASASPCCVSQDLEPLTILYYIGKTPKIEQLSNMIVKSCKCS

B1: Fab 8 (Fab, V domains shown)
VH: QVTLKESGPGILQSSQTLSLTCSLSGFSLRTSGMSVSWIRQSSGKGLEWLAHIYWDDDKRYNPSLRNRLTISKDTLRNQVFLKITSVGTADTATYYCARRAITTVIGGGTMDYWGQGTSVTVSS
VL: QIVLTQSPAIMSASPGEKVTMTCSASSSVSYMHWYQQKSGTSPKRWIYDTSKLASGVPARFSGSGSGTSYSLTISSMEAEDAATYYCQQWSSNPLTFGAGTKLELKR
notes: Mouse Fab, kappa light chain; also called anti-myostatin Fab 8
B2: Fab 14 (Fab, V domains shown)
VH: B1 VH
VL: B1 VL with S39P, S91Y
notes: Mouse Fab, kappa light chain; also called anti-myostatin Fab 14
B3: Fab 15 (Fab, V domains shown)
VH: B1 VH
VL: B1 VL with K18E, V29I, S30N, S91N, A99G
notes: Mouse Fab, kappa light chain; also called anti-myostatin Fab 15
B4: Fab 3 (Fab, V domains shown)
VH: B1 VH
VL: B1 VL with V29I, S39P, S91Y
notes: Mouse Fab from a Biosite Omniclonal library, kappa light chain (detected or captured with goat anti-mouse kappa); also called anti-myostatin Fab 3
B5: Fab 12 (Fab, V domains shown)
VH: B1 VH with I11M
VL: B1 VL with I2V, S30Y, K38R, T41A, S91T, S92Y
notes: Mouse Fab, kappa light chain; also called anti-myostatin Fab 12
B6: Fab 5 (Fab, V domains shown)
VH: B1 VH with L24F, R30S, N67S, L76S, G88D, A101G, I106L
VL: B1 VL with I2V, P15L, S30H
notes: Mouse Fab, kappa light chain; also called anti-myostatin Fab 5
B7: Fab 10 (Fab, V domains shown)
VH: B1 VH with S14P, K59E
VL: B1 VL with I2V, V29I, S39P, S91Y
notes: Mouse Fab, kappa light chain; also called anti-myostatin Fab 10
B8: Fab 11 (Fab, V domains shown)
VH: B1 VH
VL: B1 VL with V29I, S39P, S91N
notes: Mouse Fab, kappa light chain; also called anti-myostatin Fab 11
B9: Fab 7 (Fab, V domains shown)
VH: QVTLKSGPGILQSSQTLTLTCSLSGFSLTTSGMIVSWIRQSSGRGLEWLAHIYWDDDKRYNPSLRNRLTISKDTLRNQVFLWISSVGTADTATYYCARRAITTVIGGGTMDYWGQGTSVTVSS
VL: B1 VL with V29I, S39P, S91Y
notes: Mouse Fab, kappa light chain; also called anti-myostatin Fab 7

Target: T1, peptide immunogen …
Assay: ELISA, peptide coated at 2 ug/ml, Fab 0.016-10 ug/ml
Description: Each well of two 96-well plates is coated with 70 μl of the peptide immunogen used to generate the Fabs (2 μg/ml in carbonate buffer, pH 9.6). The plates are incubated in a dry oven at 37° C. overnight with the lids removed. The wells are aspirated and washed twice with washing buffer (20 mM Tris (hydroxymethyl) aminomethane, pH 7.4, 0.15 M NaCl, 0.1% Tween-20). The plates are blocked with 200 μl blocking buffer per well (5% BioRad blotting grade milk in the above washing buffer) for 2.5 hours.
The Fabs are diluted into blocking buffer at 10 μg/ml, 2 μg/ml, 0.4 μg/ml, 0.08 μg/ml, and 0.016 μg/ml. A rat anti-myostatin monoclonal antibody (R&D Systems, catalog #MAB788, clone #84214) and a polyclonal anti-myostatin antibody (R&D Systems, catalog #AF788), are used as controls at the above concentrations and are also diluted in blocking buffer. Fifty microliters of each antibody solution is added to the peptide-coated wells in duplicate. The plates are incubated for 1.5 hours at room temperature. The wells are then washed 3 times with washing buffer.
Peroxidase-conjugated secondary antibody (50 μl goat anti-mouse kappa HRP (Southern Biotech) for Fabs, 50 μl mouse anti-rat (Jackson ImmunoResearch) for monoclonal, 50 μl rabbit anti-goat (Jackson ImmunoResearch) for polyclonal, all diluted 1:2000 in blocking buffer is added to each well and incubated for 1 hour at room temperature. The wells are then washed 3 times with washing buffer. Fifty microliters of chromogenic substrate (i.e., OPD substrate) is added to each well and allowed to develop at room temperature for 10 minutes. The reaction is stopped by adding 100 μl 1N HCl to each well. The absorbance of the wells is read at 490 nm.

Binder	binding result
B1	binds
B2	binds
B3	binds
B4	binds
B5	binds
B6	binds
B7	binds
B8	binds

What follows are binders tested against T2, recombinant mouse myostatin (R&D …) (assay: ELISA, growth factor coated at 10 ug/ml, Fab at 10 ug/ml, mean of duplicate wells).
Description: (§1) Peroxidase-conjugated secondary antibody (50 μl goat anti-mouse kappa HRP (Southern Biotech) for the Fabs, 50 μl rabbit anti-goat (Jackson ImmunoResearch) for the polyclonal, diluted 1:2000 in blocking buffer) is added to each well and incubated for 1 hour at room temperature. The wells are then washed 3 times with washing buffer. Fifty microliters of chromogenic substrate (i.e., OPD substrate) is added to each well and allowed to develop at room temperature for 10 minutes. The reaction is stopped by adding 100 μl 1N HCl to each well. The absorbance of the wells is read at 490 nm.

Binder	absorbance at 490 nm [OD 490 nm]
B9	0.358
B4	0.419
B6	0.202

These binders were tested against T3, BMP-7 (R&D Systems 354-BP) in the same assay as above.
Description: as §1

Binder	absorbance at 490 nm [OD 490 nm]
B9	0.031
B4	0.033
B6	0.032

The binders below were run against T4, recombinant human GDF-11 (Peprotech, …) in the same assay as above.
Description: as §1

Binder	absorbance at 490 nm [OD 490 nm]
B9	0.04
B4	0.0705
B6	0.034

What follows are binders tested against T5, Activin A (R&D Systems 338-AC) in the same assay as above.
Description: as §1

Binder	absorbance at 490 nm [OD 490 nm]
B9	0.0325
B4	0.033
B6	0.033

Each binder was assayed against T6, BMP-5 (R&D Systems 615-BM) in the same assay as above.
Description: as §1

Binder	absorbance at 490 nm [OD 490 nm]
B9	0.0345
B4	0.034
B6	0.033

What follows are binders tested against T7, BMP-6 (R&D Systems 507-BP) in the same assay as above.
Description: as §1

Binder	absorbance at 490 nm [OD 490 nm]
B9	0.035
B4	0.0335
B6	0.0325

The binders below were run against T8, Activin B (R&D Systems 659-AB) in the same assay as above.
Description: as §1

Binder	absorbance at 490 nm [OD 490 nm]
B9	0.031
B4	0.032
B6	0.033

These binders were tested against TGF-alpha (R&D Systems 239-A) (UniProt P01135 40-89) in the same assay as above.
Sequence of TGF-alpha (R&D Systems 239-A) (P01135 40-89 limits assumed): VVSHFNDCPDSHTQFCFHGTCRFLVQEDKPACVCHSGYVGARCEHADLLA
Description: as §1

Binder	absorbance at 490 nm [OD 490 nm]
B9	0.0315
B4	0.033
B6	0.033

What follows are binders tested against T10, IGF-1 (R&D Systems 291-G1) (UniProt P05019 49-118) in the same assay as above.
T10 construct: Negative control antigen
T10 sequence (P05019 49-118 limits assumed): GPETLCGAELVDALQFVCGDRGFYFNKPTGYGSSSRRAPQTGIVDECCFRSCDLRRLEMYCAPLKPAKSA
Description: as §1

Binder	absorbance at 490 nm [OD 490 nm]
B9	0.034
B4	0.034
B6	0.035

Each binder was assayed against BMP-2 (R&D Systems 355-BEC/CF) (UniProt P12643 283-396) in the same assay as above.
Sequence of BMP-2 (R&D Systems 355-BEC/CF) (P12643 283-396 limits assumed): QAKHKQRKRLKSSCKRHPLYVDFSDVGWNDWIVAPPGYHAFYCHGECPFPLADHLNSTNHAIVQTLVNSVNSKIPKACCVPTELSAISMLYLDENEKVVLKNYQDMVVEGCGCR
Description: as §1

Binder	absorbance at 490 nm [OD 490 nm]
B9	0.0335
B4	0.0345
B6	0.032

Each binder was assayed against T9, TGF-beta2 (Peprotech, Inc. 100-35) in the same assay as above.
Description: as §1

Binder	absorbance at 490 nm [OD 490 nm]
B9	0.0345
B4	0.034
B6	0.034

Each binder was assayed against T11, TGF-beta1 (Peprotech, Inc. 100-21R) (UniProt P01137 279-390) in the same assay as above.
T11 construct: also called TGF-b1
T11 sequence (P01137 279-390 limits assumed): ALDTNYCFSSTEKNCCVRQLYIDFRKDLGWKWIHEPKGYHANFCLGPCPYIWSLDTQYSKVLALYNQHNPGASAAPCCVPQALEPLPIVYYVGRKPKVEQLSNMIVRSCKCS
Description: as §1

Binder	absorbance at 490 nm [OD 490 nm]
B9	0.032
B4	0.034
B6	0.0325
